Reference: patent US9827292B2, “Use of KGF in the treatment of menopausal disorders” (Università degli Studi di Roma “La Sapienza”, priority 2012, dated 2017)

How the values were obtained:
vaginal epithelium = test: Vaginal atrophy model in ovariectomised CD1 mice, local hydrogel treatment, histology; assay type: in vivo, mouse; conditions: for cornification of vaginal epithelium (hematoxylin and eosin) / stratification of the vaginal epithelium and hyperkeratosis (hematoxylin and eosin): low and high doses, 60 days; for cornification of vaginal epithelium (hematoxylin and eosin): not in vehicle group, FIG. 8A; for stratification of the vaginal epithelium and hyperkeratosis (hematoxylin and eosin): versus vehicle only, FIG. 7B
Procedure: The mouse strain CD1 was used in this study (Charles Rivers). The mice were held in a standard housing for laboratory animals with controlled lighting (12 h/day) and temperature (25±1° C.) and were provided with food and water ab libitum. All the experimental protocols concerning animals were in line with the Guidelines of Sapienza University for the care and use of laboratory animals and were approved by the Ethical Committee of the aforesaid institution. Forty female mice were subjected to an ovariectomy for the purpose of inducing vaginal atrophy and were administered a diet of Altromin C1000 without phytoestrogens (Altromin, Lage, Germany) for the duration of the experiments. After 30 days, the mice were treated locally, introducing daily into the vaginal canal 25 μl of hydrogel loaded with KGF (10 or 30 ng/day) or with E2 (30 ng/day or 1 μg/day). A control group was treated only with hydrogel. After 60 days of treatment, the mice were killed and the vaginas were immediately explanted, fixed in formalin and processed for histological analysis.
Serial sections of the vaginal mucus obtained from four groups of mice were stained with hematoxylin/eosin, placed permanently under a glass plate and analysed histologically. The thickness and the strata of epithelial cells of the vagina were then determined in three animals for each group, in three images for each animal (10× enlargement). Mean values were obtained from five measurements of each image. For the purpose of quantifying the thickness of the vaginal epithelium, the vertical distance between the lower surface of the cells in the stratum basale and the apical surface of the cells in the stratum superficiale was measured with the aid of NIH Image J v 1.56 (National Institutes of Health, Bethesda, Md.), and denoted as thickness. To estimate the number of vaginal epithelial layers, the layer of cells covering five contiguous basal cells was counted in the sample.
Serial sections of the vaginal mucus obtained from the four groups of mice were analysed for the expression of PCNA (Proliferating Cell Nuclear Antigen, a marker of cell proliferation) by means of immunohistochemistry. The sections were elaborated using the technique of avidin-biotin-peroxidase complex (DAKO, Glostrup, Denmark) and incubated with mouse anti-A-rat-PCNA monoclonal antibody (clone P10, 1:4000) (Abcam, Cambridge, UK), which recognises proliferant cells.
All the animals enrolled in the study were fed with a special diet devoid of oestrogens (special altromin C1000 phytoestrogen-free diet). The mice subject to an ovariectomy were then divided into […]: one group received no treatment; one group received only the vehicle; one group received the vehicle+E2 30 ng/day; one group received the vehicle+E2 1 μg/day; one group received the vehicle+KGF 10 ng/day; and one group received the vehicle+KGF 30 ng/day.
The animals were killed and the vaginas removed and immediately fixed in formalin and processed for histology. Vaginal epithelium of the treated mice was analysed histologically by means of hematoxylin/eosin and was compared with the epithelium of the group of mice not subjected to ovariectomy (FIGS. 7B and 8A). The criteria adopted in order to determine the trophism of the vaginal mucus were the thickness (evidenced by counting the number of epithelial layers present and by measuring the thickness of the epithelium in μm and also by means of the ratio between area of the epithelial layer and length of the basal membrane) (FIG. 8B) and the proliferative ability of the keratinocytes (determined by means of analyses of the expression of PCNA, a marker of cell proliferation) (FIG. 9).

MAPK p38 = test: Western blot of p38 phosphorylation in MCF-7 cells; assay type: cell-based, human; conditions: 20 ng/ml, 5 or 30 minutes, FIG. 2B
Procedure: The oestrogen receptor α-positive MCF-7 human breast adenocarcinoma cell line, acquired from American Type Culture Collection (no. HTB-22, ATCC-LGC Promochem, Teddington, UK), was cultured in Dulbecco's modified eagle's medium (DMEM; Invitrogen, Karlsruhe, Germany), supplemented with 10% foetal bovine serum (FBS; Invitrogen) and antibiotics. Primary cultures of human oestrogen-sensitive keratinocytes (KCs) were established from 1 cm^2 full-thickness mucosal biopsy of the vaginal vestibule. Following enzymatic dissociation, the keratinocytes were seeded onto culture plates coated with collagen IV (10 mg/ml), as previously reported [Panici et al, 2007], and were maintained in basal medium of the keratinocytes (KBM, Lonza) supplemented with aliquots of KGM (Lonza), with medium change twice a week. […]
MCF-7 cells untreated or treated with KGF or E2 were lysed in RIPA buffer. […] The bound antibody was detected by enhanced chemiluminescence detection reagents (Pierce Biotechnology, Inc, Rockford, Ill., USA), according to manufacturer's instructions. […] Densitometric analysis was performed using Quantity One Program (Bio-Rad Laboratories srl, Segrate, MI, Italy).

| Molecule | cornification of vaginal epithelium (hematoxylin and eosin) (vaginal epithelium) | stratification of the vaginal epithelium and hyperkeratosis (hematoxylin and eosin) (vaginal epithelium) | phosphorylation of p38 (MAPK p38) | increase in epithelial thickness, KGF versus E2 (vaginal epithelium; KGF at 30 ng/25 ul and E2 at 1 ug/25 ul, FIG. 8B) | epithelium lubrication / mucinous (PAS-positive) cells (vaginal epithelium; topical KGF, PAS staining, FIG. 9B) | vaginal thinning / epithelial cell proliferation (vaginal epithelium; topical KGF, ovariectomised mice, FIG. 9) |
| --- | --- | --- | --- | --- | --- | --- |
| C[C@]12CC[C@@H]3c4ccc(O)cc4CC[C@H]3[C@@H]1CC[C@@H]2O [E2, 17β-oestradiol] | Cornificated vaginal epithelium was observed | significant induction of stratification of the vaginal epithelium and hyperkeratosis | able to phosphorylate the protein p38 | – | – | – |
| keratinocyte growth factor (protein, listed as Homo sapiens, human recombinant KGF (Upstate Biotechnology)) MHKWILTWILPTLLYRSCFHIICLVGTISLACNDMTPEQMATNVNCSSPERHTRSYDYMEGGDIRVRRLFCRTQWYLRIDKRGKVKGTQEMKNNYNIMEIRTVAVGIVAIKGVESEFYLAMNKEGKLYAKKECNEDCNFKELILENHYNTYASAKWTHNGGEMFVALNQKGIPVRGKKTKKEQKTAHFLPMAIT | Cornificated vaginal epithelium was observed | significant induction of stratification of the vaginal epithelium and hyperkeratosis | able to phosphorylate the protein p38 | same increase in epithelial thickness | restore epithelium lubrication through stimulation of mucinous cells | able to counteract vaginal thinning by stimulating epithelial cells proliferation |
